Source: the supplement of paper PMC10567573

B1: SCNN1D (parent)
chain: FLGHHSFSVRPGTEATISIREDEV

Variants of: B1
Assay: protein stability index of a GFP-peptide fusion (GPS, HEK-293T) (PSI 1-6); higher = more stable
Conditions: c terminus: a fixed tail appended
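Note: lentivirally expressed fusions sorted by FACS into six bins by GFP to DsRed ratio, PSI derived from sequencing read proportions per bin multiplied by bin number.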

Protein stability index of substitutions, site by site:
L2: T 3.09; P 1.72; E 4.5; Q 1.95; H 1.33; K 4.07; V 2.64; R 4.48; Y 3.44; F 2.93; I 2.44; C 2.18; G 2.72; A 1.66; S 1.76
E14: H 2.11; R 2.1; Q 2.13; S 1.77; D 1.13; C 1.65; Y 1.19; N 1.82; I 1.77; A 1.92; L 1.92; F 1.37; P 1.76; V 2.18
E21: C 1.68; T 2.55; M 2.08; H 1.48; Y 2.52; N 2.11; G 1.33; K 1.44; A 2.25; W 2.45; F 2.3; I 3.27; V 3.42
F7: G 4.43; A 4.31; R 3.94; T 4.81; C 3.6; S 4.1; V 3.88; W 3.24; K 4.54; Q 3.98; L 4.01; E 4.81; I 3.65; Y 2.38
A15: T 2.31; Y 1.71; Q 1.96; P 2.04; H 1.67; M 1.58; F 2.62; C 2.34; S 2.63; N 2; W 3.05; V 1.47; G 2.01; K 1.91
I19: S 2.13; H 1.9; Q 1.99; W 1.32; M 1.55; V 2.74; N 2.42; T 1.74; E 1.71; A 2.68; K 2.14; P 1.89; D 1.92; G 2.6; L 2.16; F 2.21; C 1.58
S6: D 2.13; F 2.92; R 2.19; Q 1.76; K 1.7; M 2.96; H 2.08; C 2.25; A 3.88; N 2.08; W 1.85; E 2.73; G 1.16; P 1.46
F1: M 4.68; G 4.59; S 4.38; D 4.78; V 4.15; Y 1.97; H 4.49; W 2.77; T 4.8; L 3.99; E 5.02; A 3.92; R 4.42; P 4.64; C 3.57; Q 4.33; N 4.38
T13: A 1.77; I 1.44; Q 1.97; F 1.91; P 1.88; Y 1.36; V 1.49; R 1.7; S 1.18; N 1.49; K 2.37; C 1.58; L 2.71; H 2.03
R10: H 2.3; Q 2.49; Y 1.63; D 2.77; W 1.63; T 1.92; V 2.41; I 1.9; E 2.94; K 2.33; P 2.11; L 1.41; S 2.35
H5: A 2.46; E 1.78; M 2.33; N 1.71; L 2.28; S 1.75; P 2.13; I 1.64; W 3.19; K 3.06; V 1.33; D 2.02; R 2.55; G 2.3
D22: M 2.45; L 1.51; Y 3.14; W 1.77; T 2.07; H 1.79; V 1.57; C 2.21
